Data as given in publication PMC4232046 (2014).

Biological target: Aspergillus fumigatus core CCAAT-binding complex (HapB(230–299), HapC(40–137), HapE(47–164)) (Aspergillus fumigatus)
Test: SPR

B1: Aspergillus fumigatus HapX(24–158) (domain or fragment)
chain: SPSPGPGTPGSITSKEWVIPPRPKPGRKPATDTPPTKRKAQNRAAQRAFRERRAARVNELEEQIKKIEDEHEIHIAAFKEQITNLSREVEQCRSEMTWWRDRCHALEKEVSVERSAKEAIVKEFRSSLSDREAVR
B1 gave a Kd of 35 nM.
